Experimental data taken from the DeepSol protein solubility set.

Assay: soluble on expression in E. coli; label from the status in PepcDB or PDB records

Sequence	soluble on expression in E. coli
EGDIHMSLSHPPIPILELADHIERLKANDNLKFSQEYESIDPGQQFTWEHSNLEVNKPKNRYANVIAYDHSRVLLSAIEGIPGSDYVNANYIDGYRKQNAYIATQGSLPETFGDFWRMIWEQRSATVVMMTKLEERSRVKCDQYWPSRGTETHGLVQVTLLDTVELATYCVRTFALYKNGSSEKREVRQFQFTAWPDHGVPEHPTPFLAFLRRVKTCNPPDAGPMVVHCSAGVGRTGCFIVIDAMLERIKHEKTVDIYGHVTLMRAQRNYMVQTEDQYIFIHDALLEAVTCGNTEVPARNLYAYIQKLTQIETGENVTGMELEFKRLASSKAHTSRFISANLPCNKFKNRLVNIMPYESTRVCLQPIRGVEGSDYINASFLDGYRQQKAYIATQGPLAETTEDFWRMLWEHNSTIVVMLTKLREMGREKCHQYWPAERSARYQYFVVDPMAEYNMPQYILREFKVTDARDGQSRTVRQFQFTDWPEQGVPKSGEGFIDFIGQVHKTKEQFGQDGPISVHCSAGVGRTGVFITLSIVLERMRYEGVVDIFQTVKMLRTQRPAMVQTEDQYQFCYRAALEYLGSFDHYATEGHHHHHH	not soluble
SATREWFVMNAQQTKLALESPPLFAVKKDDDKDHTCDTGEEPYALVGSPVFNPLEDYKREVVSIIDEYFSSGDVEVAASDLMDLGLSEYHPYFVKRLVSMAMDRGNKEKEKASVLLSRLYALVVSPDQIRVGFIRLLESVGDLALDIPDAVNVLALFIARAIVDEILPPVFLARAKKTLPHSSQGFQVILVSENSYLSAPHHAELVETKWGGSTHITVEETKRKISEFLNEYVENGDTREACRCIRELGVSFFHHEIVKSGLVLVMESRTSEPLILKLLKEATEEGLISSSQMAKGFSRVADSLDDLSLDIPSAKTLFESIVPKAIIGGWLDEDSFKERSDQNGGSENLRRFKKDAETIIQEYFLSDDIPELIRSLEDLGLPEYNPVFLKKLITLAMDRKNKEKEMASVFLASLHMEMFSTEDFINGFIMLLESAEDTALDILAASDELALFLARAVIDDVLAPLNLEEISNSLPPKSTGSETIRSARSLISARHAGERLLRSWGGGTGWAVEDAKDKIWKLLEEYEVGGVISEACRCIRDLGMPFFNHEVVKKALVMAMEKKNDRMLNLLQECFAEGIITTNQMTKGFGRVKDSLDDLSLDIPNAEEKFNSYVAHAEENGWLHRDFGCSTDS	soluble
MTKVHVVLRKEDIDEMALADRKVAVVFDVLLATSSITAVLAAGARSVIPVRDAEEAKEIALRLPEGSYELVGEYEGRTIAGFHPPAPLFLQTVCPGKTVVLSTTNGTVAIRRAQPARAVYAASLLNSPAVSEHICRLHQEETIIVICSGSSGRFCLEDFYGAGYFVHCLIEQGINAAELSDSATAAWFFYRQYSDEGKAKEVLSASRVGRWMTAYGLEKEIDYINRHGSLSAVPKLELGPFGLELRNMASTKVAKEGISP	soluble
MIYLFSHAGLRDLRDFIDRSTLFAFDLDGTLAPIVSDPAGIMIPPDVHERLVRLNGTASVAVVTGRARVDAARHLGFAPRFLVGNHGAEGLPGADAAEREFIGLCRGWMTQLGELLPEGEGTGIVMEDKSATLSLHYRNAPDRENAHQRILAAVSRLLPAPRRVSGKLVENLVPAAAPHKGDALRCIMRHLGCARALFVGDDVTDEDVFRLGDEAIFGIRVGNSGGSAARYFIRGQDEMAPLLDEILAVLLEHHHHHH	soluble
MEQQRSFQTETGGHLYLVPTPIGNLDDMTFRAVKTLTAVDLIAAEDTRNTQKLLNHFEITTKQISFHEHNTQERIPQLIAKLKQGMQIAQVSDAGMPSISDPGHELVNACIDAHIPVVPLPGANAGLTALIASGLAPQPFYFYGFLDRKPKDRKAEIAGLAQRPETLIFYEAPHRLKKTLQNLAAGFGDERPAVLCRELTKRYEEFLRGSLAELANWAATDTVRGEFVVLVGGNPAPTTAATTAVDLSEPIDVQVDRLIAAGEKPNDAIKEVAKLRGAKKQEIYRQYHHLDEE	soluble
MLRSKKMVLVGRKAPDFTAAAVLGNGEIVDNFNFAEFTKGKKAVVFFYPLDFTFVCPSELIAFDNRYEDFLAKGVEVIGVSIDSQFSHNAWRNTAVENGGIGQVKYPLVADVKHEICKAYDVEHPEAGVAFRGSFLIDEEGMVRHQVVNDLPLGRNIDEMLRMVDALNFHQTHGEVCPAQWEAGKAGMEASPKGVAAFLSQYSADLK	not soluble
MGSDKIHHHHHHMKIGVLSQFPELYSTRRLVEACESRGHEAWVINPINCYMNINSVKPSIHLEGEEVPMFDAIIPRIHASVTFYGCAVVRQFEMMGVFAANDSISIARSRDKLRALQLLSRKGIGMPVTGFANKPNNIPDLINMVGGAPLVIKLLEGTQGIGVVLAETRKAAESVIEAFLGLKANIMVQEYIKEANGSDIRCFVVGDKVVAAMRRQGPEGDFRSNLHLGGSAEPVKITPQERKSAVAAAKAMGLVVAGVDILRSARGPLVLEVNSAPGIEGIEQATGIKVAEPIVEYIEKVVAARRANHQVIA	not soluble
KAKTEDFVKAFQVFDKESTGKVSVGDLRYMLTGLGEKLTDAEVDELLKGVEVDSNGEIDYKKFIEDVLRQ	soluble
MNPQLLRVTNRIIERSRETRSAYLARIEQAKTSTVHRSQLACGNLAHGFAACQPEDKASLKSMLRNNIAIITSYNDMLSAHQPYEHYPEIIRKALHEANAVGQVAGGVPAMCDGVTQGQDGMELSLLSREVIAMSAAVGLSHNMFDGALFLGVCDKIVPGLTMAALSFGHLPAVFVPSGPMASGLPNKEKVRIRQLYAEGKVDRMALLESEAASYHAPGTCTFYGTANTNQMVVEFMGMQLPGSSFVHPDSPLRDALTAAAARQVTRMTGNGNEWMPIGKMIDEKVVVNGIVALLATGGSTNHTMHLVAMARAAGIQINWDDFSDLSDVVPLMARLYPNGPADINHFQAAGGVPVLVRELLKAGLLHEDVNTVAGFGLSRYTLEPWLNNGELDWREGAEKSLDSNVIASFEQPFSHHGGTKVLSGNLGRAVMKTSAVPVENQVIEAPAVVFESQHDVMPAFEAGLLDRDCVVVVRHQGPKANGMPELHKLMPPLGVLLDRCFKIALVTDGRLSGASGKVPSAIHVTPEAYDGGLLAKVRDGDIIRVNGQTGELTLLVDEAELAAREPHIPDLSASRVGTGRELFSALREKLSGAEQGATCITF	soluble
MITLPQLITTDTDMTAGLTSGKTTGSAEDFLALLAGALGADGAQGKDARITLADLQAAGGKLSKELLTQHGEPGQAVKLADLLAQKANATDETLTDLTQAQHLLSTLTPSLKTSALAALSKTAQHDEKTPALSDEDLASLSALFAMLPGQPVATPVAGETPAENHIALPSLLRGDMPSAPQEETHTLSFSEHEKGKTEASLARASDDRATGPALTPLVVAAAATSAKVEVDSPPAPVTHGAAMPTLSSATAQPLPVASAPVLSAPLGSHEWQQTFSQQVMLFTRQGQQSAQLRLHPEELGQVHISLKLDDNQAQLQMVSPHSHVRAALEAALPMLRTQLAESGIQLGQSSISSESFAGQQQSSSQQQSSRAQHTDAFGAEDDIALAAPASLQAAARGNGAVDIFA	not soluble
MGSDKIHHHHHHMTPTYDTLIIGAGIAGASLGYRLAGQQRVLLVERESQPGYHSTGRSAAMFMEAYGTPQIQALTRASRAFYEAPPQGFCEHPLLEPRGCLYVASLEQRELLEQTFAQNLANGTEVTLLDRDAALALIPSLRGETLAGAVLEPGAMDLDVHALHQGFLRGYRTAGGELRCNAELIQACYLDDVWQVELADGSRLQARCLVNAAGAWADRVAEQCGVARIGLQPCRRSAFTFPGPAEQDFTRWPAVIGVDESFYFKPDAGQLLGSPANADPVEPQDAAPEEFDVALGIYNIEAMTTLAIRRPSHTWAGLRSFVADGDLVIGFDAHAPAFFWLAAQGGYGIQSAAGASRLAADLLLGQPLCASLVSQGVAPERLSPARFQQP	not soluble
MPHLALLISKGAIMDRIIQSPGKYIQGADVINRLGEYLKPLAERWLVVGDKFVLGFAQSTVEKSFKDAGLVVEIAPFGGECSQNEIDRLRGIAETAQCGAILGIGGGKTLDTAKALAHFMGVPVAIAPTIASTDAPCSALSVIYTDEGEFDRYLLLPNNPNMVIVDTKIVAGAPARLLAAGIGDALATWFEARACSRSGATTMAGGKCTQAALALAELCYNTLLEEGEKAMLAAEQHVVTPALERVIEANTYLSGVGFESGGLAAAHAVHNGLTAIPDAHHYYHGEKVAFGTLTQLVLENAPVEEIETVAALSHAVGLPITLAQLDIKEDVPAKMRIVAEAACAEGETIHNMPGGATPDQVYAALLVADQYGQRFLQEWE	not soluble
MNKELQPKVVFLMGPTASGKTALALELAEKHNCEIISVDSALIYRGMDIGSAKPSAEELARGPHRLIDIRDPSESYSAADFRADALSEIEQIISMGKTPLLVGGTMMYFKALLEGLSPLPSADEVIRADIQAEADANGWEALHDQLREIDPVSAERIHPNDPQRLSRALEVYRISGKSLTELTMTKSAPLPYNVVQFAIAPRERKVLHELIGQRFRIMLEQGFIDEVAQLKARDDLHLDLPSMRCVGYRQCWQYLDGEFDHDTMVEKAIAATRQLAKRQLTWLRSWPELNWLESGAEGNLVTLMRHCRLEHHHHHH	soluble
MSETRRNQSSDEQIEKSEIQHQRVVIENSHGEKLVGVLHDTGSTETVVICHGFRSSKNRIPMLTIASFFERAMISSFRFDFAGNGESQGSFQYGNYRREVEDLRSVLQHLRGVNRVISAIIGHSKGGNVVLLYAAKYNDVQTVVNISGRFFLDRGIEFRLGKDYFKRIKDNGFIDVSNRKGKFEYRVTEESLMDRLTTNAHEACLSIRENCRVLTVHGSNDRIVHVTEASEFAKQIKNHKLYVIEGADHEFTSHQHQLASIVLSFFKLDPKKDDESGDISTSNQDSMRSVVPITSRI	soluble
MAHHHHHHMSKDGNCGGCSAPWGKMPQSPMTPLSDARDSPTAPLCSHSAFSKVNKESSEEESFVVGKYQTSMCPICLESFTHENPAVVVGCGHSFHLQCVEDWRQRSPICPVCMIVLRGDGLPMHTGRQSQRPSEVSPSQRKGRATTSTMTSASSGTTFMVTAGGVHGRVLDTKPPSVVNASAGVEGSGSVVDVGNVSFLSRVRRCMKFCCTCEDDL	not soluble
MSEVIDLASPIEAHGETLSQVTFRRPTAQEARAIKALPYKIDKNEDVSLDLDVAAKYIAVCAGIPPSSVNQMDLCDINTLSWKVASFFMAAASATLKD	soluble
MKCPRCGREYISSIPPFCICGEELEITYDYSSVDVRKWKRRNPGVWRYKELLPEVKKIITLQEGGTPLIKARISEKINVDVYIKDETRNPTGSFRDRLATVAISYGLPYASNGFIVASDGNAAASVAAYSARAEKECFVVVPRKVDKGKLIQMIAFGARIIRYGDSVDEAIEYARELSKLNGLYNVTPEDNIIGLEGQKTIAFELWEEINPTHVIVPTGSGSYIYSIYKGFKELIKIGVLEKMPRLIAVQTERCNPIAAEILGLKKECKETKALGLYVKNPVMKSRVIRAIKESGGTAVVVNENDIITGEKLLANEGIFAELSSAVVMPALLSLVEKGIIEKGDKVVLVVTGSGLKIGEGGREKFSIGGTKLEILKILEEREMYAYEIWQALGKPLKYQAVHQHIKELQELGLIKEAYRKGKRIYYKLTERGRRLIENLE	soluble
